Biological target: BCMA:APRIL 1:1 (human) (UniProt Q02223)
Test: BLI, His-tagged human BCMA on tip, then human APRIL 3000 nM, then IgG; KD cell N/A, R2 0.0887

Sequence of BCMA:APRIL 1:1 (human) (Q02223 1-54 limits assumed, chain 1 of 2): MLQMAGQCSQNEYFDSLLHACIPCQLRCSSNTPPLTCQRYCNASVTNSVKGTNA
Sequence of BCMA:APRIL 1:1 (human) (O75888 115-250 limits assumed, chain 2 of 2, further chain): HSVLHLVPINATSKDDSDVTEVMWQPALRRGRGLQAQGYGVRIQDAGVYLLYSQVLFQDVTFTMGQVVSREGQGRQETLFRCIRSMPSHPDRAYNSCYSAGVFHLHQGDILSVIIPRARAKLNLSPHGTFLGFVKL

BCMA:APRIL 1:1 response: 0.18
Substance: J6M0 (antibody)
